Molecular target: Fc-FGF21 from E. coli (UniProt Q9NSA1)
Assay: BLI

Human KLB (from UniProt Q86Z14 1-996) (receptor)
Kd: 0.0101 µM
